In patent publication US20220143148A1, “COMPOSITIONS AND METHODS FOR MODULATING CGRP SIGNALING TO REGULATE INTESTINAL INNATE LYMPHOID CELLS” (The Broad Institute, Inc., priority 2019, published 2022):

Test system: small intestinal immune cells
Assay: Droplet-based scRNA-seq of small intestinal immune cells (LP and PP), OVA vs PBS, clustering and differential expression
Format: in vivo, mouse
Settings: cluster ID 12, LP; for LN (average fold change): OVA vs PBS
From the text: To comprehensively characterize small intestinal immune cells, Applicants generated scRNA-Seq profiles for 58,067 immune cells collected from lamina propria (LP) and Peyer's patch (PP) regions at steady state and after induction of a type 2 inflammatory reaction to ovalbumin (OVA) (Brandt et al., 2003) (FIGS. 1A and 8A). To ensure sufficient representation of rare cells, Applicants combined a normalization strategy—removing by flow sorting either a portion of IgD+ naïve B cells, which are the most abundant cell type in PPs, or all CD19+ and CD3+ T cells (FIG. 8B, Methods)—with profiling of a sufficiently large number of cells number (P>0.99 to recover at least 15 cells from each cluster, Methods) by massively parallel scRNA-seq (Haber et al., 2017) (Methods). Applicants obtained 36,797 and 21,270 high quality cells passing initial filtering (Methods) from PP and LP regions, respectively.
Overall, Applicants annotated 27 cell subsets across the two compartments, spanning T cells, B cells, ILCs, dendritic cells (DCs), myeloid cells and stromal cells, in frequencies ranging from 0.07% to 14%. Briefly, Applicants first partitioned the cells from the PP regions by unsupervised clustering (Methods) into 46 clusters, retained the 97% of cells that were robustly assigned cell identities in each cluster (Methods), assigned the cells from the LP regions to the 46 clusters using a classifier (Methods), and visualized the data with scvis (Ding et al., 2018), a deep generative model-based method (FIGS. 1B and 8C, Methods). Next, Applicants identified genes that were differentially expressed between the cells in each cluster and the remaining cells (Table 1, Methods), as well as between pairs of clusters (Table 2), to elucidate identities of similar cell types/states. Applicants excluded from downstream analysis clusters mostly consisting of contaminants from epithelium, likely doublets, or cells with a small number of Unique Molecular Identifiers (UMIs) (FIGS. 1C and 8D), or lacking distinct markers (Methods). Altogether, Applicants retained 27 clusters spanning 85% of the cells and each associated with distinct marker genes (FIG. 8E, Methods).
To induce allergic reaction to OVA, 6 to 7 weeks old mice were sensitized twice, two weeks apart, with 50 μg of OVA plus 1 mg of aluminum potassium sulfate adjuvant via intraperitoneal injection. Two weeks later, mice were orally administered with 50 mg of OVA on every other day for a total of five times. 1 μg of α-CGRP peptide was administered simultaneously when indicated. Mice were deprived of food for 3-4 hours in cages with wood chip bedding for limiting antigen degradation in the stomach before each intragastric challenge.
Isolation of cells from Peyer's patches (PPs). Peyer's patches (PPs) were carefully dissected from the small intestine under a stereo microscope using a fine scissor, pierced once with a fine forcep. Tissues were digested in freshly made digestion buffer (RPMI-1640 containing 100 μg/ml Liberase™ and 50 μg/ml DNase I at 37° C. on a roto-mixer. After 15 min, tissues were very gently mixed using a 1 ml pipette. The supernatant was collected and added to ice-cold MACS buffer (pH 7.4; PBS plus 2% FCS and 2 mM EDTA). Pre-warmed (37° C.) fresh digestion buffer was added to the remaining tissues. After rotation at 37° C. for 15 min, the mixture was vigorously mixed using a 1 ml pipette for 1 min. Supernatants from the two steps were combined and passed through 70 μm filters and stained for FACS (below).
Isolation of cells from the lamina propria (LP). The small intestines were opened longitudinally and washed in ice-cold PBS. For scRNA-seq, roughly 0.5 cm of fragments from each of the distal, middle and proximal regions without visible PPs were collected. Epithelial cells were dissociated by tissue rotation in pre-warmed (37° C.) PBS containing 10 mM EDTA at 37° C. for 15 min, followed by additional incubation on ice for 15 min. Tissues were then shaken vigorously. […]

B1: OVA (protein, UniProt P01012 2-386, looked up)
Ovalbumin: GSIGAASMEFCFDVFKELKVHHANENIFYCPIAIMSALAMVYLGAKDSTRTQINKVVRFDKLPGFGDSIEAQCGTSVNVHSSLRDILNQITKPNDVYSFSLASRLYAEERYPILPEYLQCVKELYRGGLEPINFQTAADQARELINSWVESQTNGIIRNVLQPSSVDSQTAMVLVNAIVFKGLWEKAFKDEDTQAMPFRVTEQESKPVQMMYQIGLFRVASMASEKMKILELPFASGTMSMLVLLPDEVSGLEQLESIINFEKLTEWTSSNVMEERKIKVYLPRMKMEEKYNLTSVLMAMGITDVFSSSANLSGISSAESLKISQAVHAAHAEINEAGREVVGSAEAGVDAASVSEEFRADHPFLFCIKHIATNAVLFFGRCVSP
- percentage of expressing cells in OVA-treated group (gene Ero1l): 0.399
- LN (average fold change) (gene Ero1l): 0.949
- percentage of expressing cells in OVA-treated group (gene Fgl2): 0.61
- LN (average fold change) (gene Fgl2): 0.609
- percentage of expressing cells in OVA-treated group (gene Fth1): 0.963
- LN (average fold change) (gene Fth1): −0.236
- percentage of expressing cells in OVA-treated group (gene Fxyd5): 0.564
- LN (average fold change) (gene Fxyd5): 0.407
- percentage of expressing cells in OVA-treated group (gene Galnt12): 0.086
- LN (average fold change) (gene Galnt12): −0.960
- percentage of expressing cells in OVA-treated group (gene Gapdh): 0.561
- LN (average fold change) (gene Gapdh): 0.420
- percentage of expressing cells in OVA-treated group (gene Gimap5): 0.338
- LN (average fold change) (gene Gimap5): 0.779
- percentage of expressing cells in OVA-treated group (gene Glul): 0.184
- LN (average fold change) (gene Glul): −1.009
- percentage of expressing cells in OVA-treated group (gene Gmfg): 0.31
- LN (average fold change) (gene Gmfg): 0.821
- percentage of expressing cells in OVA-treated group (gene Gpr132): 0.399
- LN (average fold change) (gene Gpr132): −0.573
- percentage of expressing cells in OVA-treated group (gene Gpx4): 0.818
- LN (average fold change) (gene Gpx4): −0.345
- percentage of expressing cells in OVA-treated group (gene H2-Q4): 0.246
- LN (average fold change) (gene H2-Q4): −0.675
- percentage of expressing cells in OVA-treated group (gene H2afj): 0.433
- LN (average fold change) (gene H2afj): 0.452
- percentage of expressing cells in OVA-treated group (gene H3f3b): 0.982
- LN (average fold change) (gene H3f3b): 0.286
- percentage of expressing cells in OVA-treated group (gene Hccs): 0.243
- LN (average fold change) (gene Hccs): 1.079
- percentage of expressing cells in OVA-treated group (gene Hmgb1): 0.552
- LN (average fold change) (gene Hmgb1): −0.400
- percentage of expressing cells in OVA-treated group (gene Igha): 0.951
- LN (average fold change) (gene Igha): 0.407
- percentage of expressing cells in OVA-treated group (gene Igkc): 0.985
- LN (average fold change) (gene Igkc): 0.474
- percentage of expressing cells in OVA-treated group (gene Iglc1): 0.184
- LN (average fold change) (gene Iglc1): −0.692
- percentage of expressing cells in OVA-treated group (gene Irf1): 0.069
- LN (average fold change) (gene Irf1): −1.336
- percentage of expressing cells in OVA-treated group (gene Itk): 0.515
- LN (average fold change) (gene Itk): 0.495
- percentage of expressing cells in OVA-treated group (gene Jarid2): 0.156
- LN (average fold change) (gene Jarid2): 1.269
- percentage of expressing cells in OVA-treated group (gene Kdm6b): 0.65
- LN (average fold change) (gene Kdm6b): 0.555
- percentage of expressing cells in OVA-treated group (gene Kif23): 0.102
- LN (average fold change) (gene Kif23): −1.129
- percentage of expressing cells in OVA-treated group (gene Klf4): 0.336
- LN (average fold change) (gene Klf4): −0.566
- percentage of expressing cells in OVA-treated group (gene Lmna): 0.045
- LN (average fold change) (gene Lmna): −1.627
- percentage of expressing cells in OVA-treated group (gene Ly6a): 0.055
- LN (average fold change) (gene Ly6a): −1.208
- percentage of expressing cells in OVA-treated group (gene Maff): 0.399
- LN (average fold change) (gene Maff): −0.518
- percentage of expressing cells in OVA-treated group (gene Mat2a): 0.288
- LN (average fold change) (gene Mat2a): −0.572
- percentage of expressing cells in OVA-treated group (gene Naca): 0.839
- LN (average fold change) (gene Naca): 0.299
- percentage of expressing cells in OVA-treated group (gene Ndfip1): 0.247
- LN (average fold change) (gene Ndfip1): 0.765
- percentage of expressing cells in OVA-treated group (gene Neurl3): 0.328
- LN (average fold change) (gene Neurl3): −0.470
- percentage of expressing cells in OVA-treated group (gene Nfkb1): 0.81
- LN (average fold change) (gene Nfkb1): 0.501
- percentage of expressing cells in OVA-treated group (gene Nr4a2): 0.383
- LN (average fold change) (gene Nr4a2): 0.702
- percentage of expressing cells in OVA-treated group (gene Nrgn): 0.284
- LN (average fold change) (gene Nrgn): 1.042
- percentage of expressing cells in OVA-treated group (gene Nxpe3): 0.202
- LN (average fold change) (gene Nxpe3): 0.974
- percentage of expressing cells in OVA-treated group (gene Pfn1): 0.974
- LN (average fold change) (gene Pfn1): 0.233
- percentage of expressing cells in OVA-treated group (gene Pgm2l1): 0.065
- LN (average fold change) (gene Pgm2l1): −0.966
- percentage of expressing cells in OVA-treated group (gene Pnrc1): 0.583
- LN (average fold change) (gene Pnrc1): −0.457
- percentage of expressing cells in OVA-treated group (gene Pole4): 0.604
- LN (average fold change) (gene Pole4): 0.415
- percentage of expressing cells in OVA-treated group (gene Polr2e): 0.091
- LN (average fold change) (gene Polr2e): −1.019
- percentage of expressing cells in OVA-treated group (gene Prdx6): 0.507
- LN (average fold change) (gene Prdx6): 0.908
- percentage of expressing cells in OVA-treated group (gene Psap): 0.299
- LN (average fold change) (gene Psap): −0.562
- percentage of expressing cells in OVA-treated group (gene Psmb8): 0.49
- LN (average fold change) (gene Psmb8): −0.441
- percentage of expressing cells in OVA-treated group (gene Psmb10): 0.219
- LN (average fold change) (gene Psmb10): −0.598
- percentage of expressing cells in OVA-treated group (gene Ptp4a1): 0.349
- LN (average fold change) (gene Ptp4a1): −0.514
- percentage of expressing cells in OVA-treated group (gene Ramp3): 0.561
- LN (average fold change) (gene Ramp3): 0.516
- percentage of expressing cells in OVA-treated group (gene Rheb): 0.536
- LN (average fold change) (gene Rheb): 0.631
- percentage of expressing cells in OVA-treated group (gene Rnf19b): 0.279
- LN (average fold change) (gene Rnf19b): 0.971
- percentage of expressing cells in OVA-treated group (gene Rsrp1): 0.24
- LN (average fold change) (gene Rsrp1): −0.708
- percentage of expressing cells in OVA-treated group (gene Saraf): 0.304
- LN (average fold change) (gene Saraf): −0.533
- percentage of expressing cells in OVA-treated group (gene Scp2): 0.382
- LN (average fold change) (gene Scp2): −0.568
- percentage of expressing cells in OVA-treated group (gene Sepp1): 0.254
- LN (average fold change) (gene Sepp1): −0.824
- percentage of expressing cells in OVA-treated group (gene Serp1): 0.554
- LN (average fold change) (gene Serp1): −0.529
- percentage of expressing cells in OVA-treated group (gene Srsf7): 0.251
- LN (average fold change) (gene Srsf7): −0.443
- percentage of expressing cells in OVA-treated group (gene Tgfb1): 0.457
- LN (average fold change) (gene Tgfb1): 0.625
- percentage of expressing cells in OVA-treated group (gene Tgoln1): 0.215
- LN (average fold change) (gene Tgoln1): −0.572
- percentage of expressing cells in OVA-treated group (gene Tiparp): 0.18
- LN (average fold change) (gene Tiparp): −0.904
- percentage of expressing cells in OVA-treated group (gene Tmem64): 0.41
- LN (average fold change) (gene Tmem64): 0.605
- percentage of expressing cells in OVA-treated group (gene Tmsb4x): 1
- LN (average fold change) (gene Tmsb4x): 0.195
- percentage of expressing cells in OVA-treated group (gene Tmsb10): 0.942
- LN (average fold change) (gene Tmsb10): −0.240
- percentage of expressing cells in OVA-treated group (gene Tnfaip3): 0.534
- LN (average fold change) (gene Tnfaip3): −0.487
- percentage of expressing cells in OVA-treated group (gene Tnfaip8): 0.518
- LN (average fold change) (gene Tnfaip8): 0.740
- percentage of expressing cells in OVA-treated group (gene Tpm4): 0.394
- LN (average fold change) (gene Tpm4): 0.964
- percentage of expressing cells in OVA-treated group (gene Tspan13): 0.699
- LN (average fold change) (gene Tspan13): −0.366
- percentage of expressing cells in OVA-treated group (gene Tspan32): 0.073
- LN (average fold change) (gene Tspan32): −0.997
- percentage of expressing cells in OVA-treated group (gene Ubc): 0.303
- LN (average fold change) (gene Ubc): −0.542
- percentage of expressing cells in OVA-treated group (gene Ucp2): 0.612
- LN (average fold change) (gene Ucp2): 0.519
- percentage of expressing cells in OVA-treated group (gene Uhrf2): 0.296
- LN (average fold change) (gene Uhrf2): −0.506
- percentage of expressing cells in OVA-treated group (gene Uqcrh): 0.765
- LN (average fold change) (gene Uqcrh): 0.450
- percentage of expressing cells in OVA-treated group (gene Usmg5): 0.509
- LN (average fold change) (gene Usmg5): −0.414
- percentage of expressing cells in OVA-treated group (gene Vmp1): 0.239
- LN (average fold change) (gene Vmp1): 1.019
- percentage of expressing cells in OVA-treated group (gene Zc3h12a): 0.157
- LN (average fold change) (gene Zc3h12a): −0.866
- percentage of expressing cells in OVA-treated group (gene Zfp36l2): 0.49
- LN (average fold change) (gene Zfp36l2): 0.453
- percentage of expressing cells in OVA-treated group (gene Zrsr1): 0.242
- LN (average fold change) (gene Zrsr1): −0.652
